# Measured values as given in patent US20050084493A1 (Amgen, published 2005).
# Legend:
# [1] = target: IL-1 receptor type I (IL-1R1) on SW982 synoviocytes / HUVEC (human) (UniProt P14778); experiment: cell-based or functional assay
# IL-1β [2] = target: T1, IL-1β (Homo sapiens (Human), UniProt P01584 117-269); experiment: cell-based or functional assay
# IL-1β [3] = target: T1, IL-1β; experiment: ECL (Origen) competition of complex formation: antibody titrated against biotinylated sIL-1 receptor (1 nM), IL-1β (1 nM), ruthenium-tagged IL-1RacP (5 nM)
# Description: The resulting complexes were captured using magnetic streptavidin-coated beads and an Origen® Analyzer (IGEN Inc.) measured an ECL signal proportional to the ruthenium tag captured in the complex to evaluate competition of complex formation.
# After a 1-hour incubation, the resulting complexes were captured using magnetic streptavidin-coated beads. Competition of complex formation was evaluated using an Origen® Analyzer (IGEN Inc.), which measures an ECL signal proportional to the ruthenium tag captured in the complex.
# Chain of IL-1 receptor type I (IL-1R1) on SW982 synoviocytes / HUVEC (human) (P14778 18-569): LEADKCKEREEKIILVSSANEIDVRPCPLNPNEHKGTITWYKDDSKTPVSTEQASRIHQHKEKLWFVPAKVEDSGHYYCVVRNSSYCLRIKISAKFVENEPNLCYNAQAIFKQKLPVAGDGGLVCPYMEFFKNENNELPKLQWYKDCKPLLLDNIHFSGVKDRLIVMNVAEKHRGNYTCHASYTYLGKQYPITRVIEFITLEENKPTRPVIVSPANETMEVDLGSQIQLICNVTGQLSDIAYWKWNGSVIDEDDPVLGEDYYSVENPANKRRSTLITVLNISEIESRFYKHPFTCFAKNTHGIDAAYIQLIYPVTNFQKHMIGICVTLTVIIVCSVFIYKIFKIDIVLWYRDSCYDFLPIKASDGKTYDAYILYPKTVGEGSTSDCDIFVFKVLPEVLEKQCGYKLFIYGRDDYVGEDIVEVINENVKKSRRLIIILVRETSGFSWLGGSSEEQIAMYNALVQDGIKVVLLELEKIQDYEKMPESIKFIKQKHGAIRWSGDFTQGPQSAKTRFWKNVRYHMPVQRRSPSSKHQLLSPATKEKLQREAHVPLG
"IC50 (pM), IL-1β-dependent GROα production in HUVEC [1] [pM]","IC50 (pM), IL-1β-dependent GROα production in HUVEC (IL-1β [2]) [pM]",IC50 (IL-1β [3]) [nM],Molecule
2930,–,–,IL-1ra (from UniProt P18510 26-177) (ligand)
–,171,0.476,"MAB201 murine monoclonal anti-IL-1β antibody (R&D Systems) (antibody, V domains shown, Commercial murine monoclonal; light chain is kappa; also called Mouse; mouse monoclonal MAB201) VH: QVTLKESGPGILKPSQTLSLTCSFSGFSLSTSGMGVGWIRQPSGKGLEWLAHIWWDGDESYNPSLKTRLTISKNTSRNQVFLKITTVDTVDTATYFCARNRYDPPWFVDWGQGTLVTVSS VL: DIQMTQTTSSLSASLGDRVTISCRASQDISNYLSWYQQKPDGTVKLLIYYTSKLHSGVPSRFSGSGSGTDYFLTISNLEQEDIATYFCLQGKMLPWTFGGGTKLEIK"
